Publication PMC6648347, “Effective mismatch repair depends on timely control of PCNA retention on DNA by the Elg1 complex” (Nucleic Acids Research, 2019)
Positions count from the first letter of the chain named. Names and notes keep the numbering of the source.

B1: PCNA-D17K (recombinant, crystallised) (natural protein, S. cerevisiae)
chain: MLEAKFEEASLFKRIIKGFKDCVQLVNFQCKEDGIIAQAVDDSRVLLVSLEIGVEAFQEYRCDHPVTLGMDLTSLSKILRCGNNTDTLTLIADNTPDSIILLFEDTKKDRIAEYSLKLMDIDADFLKIEELQYDSTLSLPSSEFSKIVRDLSQLSDSINIMITKETIKFVADGDIGSGSVIIKPFVDMEHPETSIKLEMDQPVDLTFGAKYLLDIIKGSSLSDRVGIRLSSEAPALFQFDLKSGFLQFFLAPKFNDEE
notes: PCNA (POL30), S. cerevisiae, with D17K; modified pET-28 vector with an N-terminal 6-His tag and a PreScission Protease cleavage site; also called PCNA mutant D17K
B2: PCNA-D21K (recombinant, crystallised) (natural protein, S. cerevisiae)
chain: B1 chain with K17D, D21K
notes: PCNA (POL30), S. cerevisiae, with D21K; modified pET-28 vector with an N-terminal 6-His tag and a PreScission Protease cleavage site; also called PCNA mutant D21K

Target: the molecule itself
Test: crystal structure; hanging drop, room temperature; 50 mM sodium citrate pH 5.3, 1.7 M (NH4)2SO4 for PCNA-D17K; 50 mM sodium citrate pH 5.6, 2 M (NH4)2SO4 for PCNA-D21K; molecular replacement with wild-type PCNA (PDB 4YHR)

Row | Protein | binding result
1 | B1 | binds
2 | B2 | binds
